Results on one molecule are retold here after publication PMC3362532, “Targeting Melanoma Metastasis and Immunosuppression with a New Mode of Melanoma Inhibitory Activity (MIA) Protein Inhibition” (PLoS ONE, 2012).

For experiment [1], the target named is T1, human MIA protein labelled for the HTFP assay (MIA-biotin conjugate immobilised; MIA-Ru(bpy)3 in solution) (human, UniProt Q16674 25-131, Ru(bpy)3 (from Ru(bpy)3-isothiocyanate) on the copy in solution; biotin on the immobilised copy; sites not stated).
T1 construct: human MIA protein; source: human MIA protein labeled with Ru(bpy)3-isothiocyanate, purified over a size exclusion column (Sephadex G75 M PD-10)
T1 sequence (looked up): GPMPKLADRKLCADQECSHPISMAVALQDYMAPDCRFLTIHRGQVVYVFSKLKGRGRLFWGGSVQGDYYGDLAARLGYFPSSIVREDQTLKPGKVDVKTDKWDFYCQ
The experiment in a line: fluorescence polarisation; heterogeneous transition-metal-based fluorescence polarization (HTFP) assay: MIA-biotin immobilised in streptavidin-coated 96 well plates, MIA-Ru(bpy)3 in solution, RT, 250 uL per well, P/P0 against a well without MIA-biotin; peptides at 1.6 uM. Particulars: both partners purified.

The target in experiment [2] is T2, recombinant human MIA, wild type (human, UniProt Q16674 25-131).
T2 construct: The printed residue numbers (C17, C106) fit the mature protein without its signal peptide; The vector may add a His tag; also called wt MIA; wild-type (wt) MIA; source: in vitro expression, Rapid Translation System RTS 500 E. coli HY Disulfide Kit (cell free)
T2 sequence (looked up): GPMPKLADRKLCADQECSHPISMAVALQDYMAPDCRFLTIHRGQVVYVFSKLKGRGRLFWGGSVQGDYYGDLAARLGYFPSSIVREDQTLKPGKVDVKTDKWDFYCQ
The experiment in a line: NMR titration; 2D 1H-15N HSQC of uniformly 15N-enriched MIA with increasing amounts of AR71, 300 K, pH 7. The following applies: both partners purified.

Regarding Ac-FHWRYPLPLPGQ-NH2 [dodecapeptide AR71], the binding result in experiment [1] and in experiment [2] was “binds” throughout.
